Test results published in patent US20260286413A1, “HYALURONAN SYNTHESIS, SECRETION AND LENGTH CONTROL” (UNIVERSITY OF VIRGINIA, priority 2023, published 2026).
Numbering of substitutions follows the chain as printed. Names and notes keep the numbering of the source.

B1: W491A: X1HAS1 mutant, Trp491 of WGTSGRK/R motif replaced with Ala (protein, UniProt P13563 1-588, looked up, variant W491A)
Hyaluronan synthase 1: MKEKAAETMEIPEGIPKDLEPKHPTLWRIIYYSFGVVLLATITAAYVAEFQVLKHEAILFSLGLYGLAMLLHLMMQSLFAFLEIRRVNKSELPCSFKKTVALTIAGYQENPEYLIKCLESCKYVKYPKDKLKIILVIDGNTEDDAYMMEMFKDVFHGEDVGTYVWKGNYHTVKKPEETNKGSCPEVSKPLNEDEGINMVEELVRNKRCVCIMQQWGGKREVMYTAFQAIGTSVDYVQVCDSDTKLDELATVEMVKVLESNDMYGAVGGDVRILNPYDSFISFMSSLRYWMAFNVERACQSYFDCVSCISGPLGMYRNNILQVFLEAWYRQKFLGTYCTLGDDRHLTNRVLSMGYRTKYTHKSRAFSETPSLYLRWLNQQTRWTKSYFREWLYNAQWWHKHHIWMTYESVVSFIFPFFITATVIRLIYAGTIWNVVWLLLCIQIMSLFKSIYACWLRGNFIMLLMSLYSMLYMTGLLPSKYFALLTLNKTGAGTSGRKKIVGNYMPILPLSIWAAVLCGGVGYSIYMDCQNDWSTPEKQKEMYHLLYGCVGYVMYWVIMAVMYWVWVKRCCRKRSQTVTLVHDIPDMCV
B2: R381K: X1HAS1 mutant, Arg381 replaced with Lys (protein, UniProt P13563 1-588, looked up, variant R381K)
Hyaluronan synthase 1: B1 Hyaluronan synthase 1 with R381K, A491W
B3: W491F: X1HAS1 mutant, Trp491 replaced with Phe (protein, UniProt P13563 1-588, looked up, variant W491F)
Hyaluronan synthase 1: B1 Hyaluronan synthase 1 with A491F
B4: K218R: X1HAS1 mutant, Lys218 replaced with Arg (protein, UniProt P13563 1-588, looked up, variant K218R)
Hyaluronan synthase 1: B1 Hyaluronan synthase 1 with K218R, A491W
B5: R496A: X1HAS1 mutant, Arg496 replaced with Ala (protein, UniProt P13563 1-588, looked up, variant R496A)
Hyaluronan synthase 1: B1 Hyaluronan synthase 1 with A491W, R496A
B6: K218A: X1HAS1 mutant, Lys218 replaced with Ala (protein, UniProt P13563 1-588, looked up, variant K218A)
Hyaluronan synthase 1: B1 Hyaluronan synthase 1 with K218A, A491W
B7: R381A: X1HAS1 mutant, Arg381 of QxxRW motif replaced with Ala (protein, UniProt P13563 1-588, looked up, variant R381A)
Hyaluronan synthase 1: B1 Hyaluronan synthase 1 with R381A, A491W
B8: R296A: X1HAS1 mutant, Arg296 replaced with Ala (protein, UniProt P13563 1-588, looked up, variant R296A)
Hyaluronan synthase 1: B1 Hyaluronan synthase 1 with R296A, A491W
B9: H72F: X1HAS1 mutant, His72 replaced with Phe (protein, UniProt P13563 1-588, looked up, variant H72F)
Hyaluronan synthase 1: B1 Hyaluronan synthase 1 with H72F, A491W
B10: R287A: X1HAS1 mutant, Arg287 replaced with Ala (protein, UniProt P13563 1-588, looked up, variant R287A)
Hyaluronan synthase 1: B1 Hyaluronan synthase 1 with R287A, A491W
B11: H72A: X1HAS1 mutant, His72 replaced with Ala (protein, UniProt P13563 1-588, looked up, variant H72A)
Hyaluronan synthase 1: B1 Hyaluronan synthase 1 with H72A, A491W
B12: K448R: X1HAS1 mutant, Lys448 replaced with Arg (protein, UniProt P13563 1-588, looked up, variant K448R)
Hyaluronan synthase 1: B1 Hyaluronan synthase 1 with K448R, A491W
B13: T493S: X1HAS1 mutant, Thr493 replaced with Ser (protein, UniProt P13563 1-588, looked up, variant T493S)
Hyaluronan synthase 1: B1 Hyaluronan synthase 1 with A491W, T493S
B14: T493A: X1HAS1 mutant, Thr493 replaced with Ala (protein, UniProt P13563 1-588, looked up, variant T493A)
Hyaluronan synthase 1: B1 Hyaluronan synthase 1 with A491W, T493A
B15: K448A: X1HAS1 mutant, Lys448 replaced with Ala (protein, UniProt P13563 1-588, looked up, variant K448A)
Hyaluronan synthase 1: B1 Hyaluronan synthase 1 with K448A, A491W
B16: R496K: X1HAS1 mutant, Arg496 replaced with Lys (protein, UniProt P13563 1-588, looked up, variant R496K)
Hyaluronan synthase 1: B1 Hyaluronan synthase 1 with A491W, R496K
B17: C307A: X1HAS1 mutant, Cys307 replaced with Ala (protein, UniProt P13563 1-588, looked up, variant C307A)
Hyaluronan synthase 1: B1 Hyaluronan synthase 1 with C307A, A491W
B18: C307S: X1HAS1 mutant, Cys307 replaced with Ser (protein, UniProt P13563 1-588, looked up, variant C307S)
Hyaluronan synthase 1: B1 Hyaluronan synthase 1 with C307S, A491W
B19: C337S: X1HAS1 mutant, Cys337 replaced with Ser (protein, UniProt P13563 1-588, looked up, variant C337S)
Hyaluronan synthase 1: B1 Hyaluronan synthase 1 with C337S, A491W
B20: R296K: X1HAS1 mutant, Arg296 replaced with Lys (protein, UniProt P13563 1-588, looked up, variant R296K)
Hyaluronan synthase 1: B1 Hyaluronan synthase 1 with R296K, A491W
B21: R287K: X1HAS1 mutant, Arg287 replaced with Lys (protein, UniProt P13563 1-588, looked up, variant R287K)
Hyaluronan synthase 1: B1 Hyaluronan synthase 1 with R287K, A491W

System: X1HAS1
Experiment: Substrate turnover rate quantification (UDP release, enzyme-coupled assay)
Assay type: biochemical, Xenopus laevis
Settings: UDP release
Protocol: UDP release during HA synthesis was quantified using an enzyme-coupled assay as previously described (10, 13). Depletion of NADH was monitored at 340 nm every 60 s for 3 hours at 37° C. in a SpectraMax instrument. The raw data was processed in MS Excel and a linear phase of each reaction was determined. The rate of NADH depletion was converted to pmoles of UDP released using a UDP standardized plot (FIG. S1C) for Michaelis-Menten constant determination using GraphPad Prism. For substrate turnover rate quantification of X1HAS1 mutants, pmoles of released UDP were converted to the number of corresponding substrate turnovers per molecule of X1HAS1, per minute. Data is presented relative to wild type activity. All experiments were performed in four to eight replicates and error bars represent standard deviation from the means.
HAS transfers the UDP-activated glycosyl unit (the donor sugar) to the non-reducing end of the nascent HA polymer (the acceptor sugar). This reaction generates UDP and elongated HA as reaction products (FIG. 1A). Catalytic activity can be assessed by monitoring the release of UDP in an enzyme-coupled reaction, as previously described (10, 13), or quantifying HA, either radiometrically or by dye staining following electrophoresis.

Molecule	substrate turnover / catalytic activity compared to WT
B1	abolished
B2	cannot be replaced
B3	reduced
B4	abolishes
B5	abolishes catalytic activity
B6	abolishes
B7	cannot be replaced

Same assay, conditions: UDP release, normalized to WT

Molecule	substrate turnover rate / catalytic rate relative to WT
B8	~30%
B9	about 10%
B10	about 15%
B11	50-75%
B12	50-75%
B13	20-25%
B14	20-25%
B15	50-75%

System: X1HAS1
Experiment: Electrophoretic HA size determination (agarose gel, Stains-all) of in vitro synthesized HA
Assay type: biochemical, Xenopus laevis
Settings: not given
Protocol: To assess the size of HA synthesized by X1HAS1, similar reaction conditions were applied to the ones described above. […] […] Controls were carried out by digesting the synthesized polymers with hyaluronidase. Synthesis reactions were mixed with SDS-PAGE loading dye and applied to a 1% agarose gel (Ultra-pure agarose, Invitrogen) casted in an Owl B2 system (ThermoFisher). […] After the run, the gel was equilibrated in 50% ethanol for 1.5 h and subjected to staining in 0.05% Stains-all (Sigma) in 50% ethanol overnight under light-protection. Post-staining background was reduced by soaking the gel in 20% ethanol for 3-7 days in the dark. The migration of the synthesized HA species was compared to HA standards from Streptococcus equi (Sigma), as well as enzymatically generated ladders: HA LoLadder and HA HiLadder (Hyalose).

Molecule	HA product versus WT, short reaction
B1	abolishes HA biosynthesis
B9	reduced length
B3	lower molecular weight product
B11	reduced length
B12	reduced length
B13	exceeding the size of the WT product
B14	exceeding the size of the WT product
B15	reduced length
B16	slightly increased length

Same assay, conditions: 8 h synthesis reaction

Molecule	HA product versus WT, long reaction
B9	equivalent to or exceeding the HA length obtained from the WT enzyme
B12	equivalent to or exceeding the HA length obtained from the WT enzyme
B16	greater polydispersity

Same assay, conditions: from differences in electrophoretic mobility

Molecule	HA size difference versus WT product
B12	up to 0.5 MDa
B13	up to 0.5 MDa

Same assay, conditions: short and long reactions (1 h or 8 h), not distinguished

Molecule	HA product versus WT
B8	short HA oligosaccharide species
B17	low amounts of polydisperse HA
B18	low amounts of polydisperse HA
B10	short HA oligosaccharide species
B4	abolishes
B6	abolishes
B19	slight length reduction
B20	low molecular weight
B21	polydisperse
